Laboratory results reported in the supplement of paper PMC10126150.
± gives the standard deviation of the averaged measurements.

System: ATP
Assay: switch fluorescence ratio, 500 uM ATP over buffer (Cy3 cluster intensity, sum of 5 cycles each) (fold (ratio)); higher = stronger signal-on switching upon ATP binding; sequences stand for … in TCGTCGGCAGCGTCAGATGTGTATAAGAGACAGTTTTTTTTTTTTTTTTTTTTTTTTT…TC
Details: aptamer strand: ATP DNA aptamer (quencher-CACCTGGGGGAGTATTGCGGAGGAAGG + anchor), 100 nM annealed; ATP concentration: 500 uM
Summary of the method: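 Imaging in selection buffer was followed by imaging after 15 min with 500 uM ATP at 22 °C, for Cy3-labelled switching-strand clusters annealed to 100 nM quencher-labelled ATP aptamer on a modified Illumina MiSeq flow-cell. Five of these buffer/ATP cycles ran, separated by NaOH stripping and re-annealing. The fluorescence ratio per cluster is summed target-cycle over summed buffer-cycle Cy3 intensity, averaged per switch-domain sequence; clusters outside 100-1000 RFU were removed.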
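Also: ATP exposure 15 min at 22 °C before imaging.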

Sequence | switch fluorescence ratio
TAATGCGCAA | 2.56 ± 1.6
TAATGGACAA | 1.04 ± 0.017
TAATGGCTT | 1.003 ± 0.0022
TAATGGGCGT | 1 ± 0.012
TAATGGGGTC | 0.9801 ± 0.0029
TAATGGGTGA | 1.03 ± 0.016
TAATGGTTGA | 1.02 ± 0.029
TAATGGTTGG | 0.99283 ± 0.00085
TAATGTGTGG | 0.9885 ± 0.0094
TAATGTTCTT | 1 ± 0.033
TAATTAGGAA | 1.02 ± 0.03
TAATTATGAG | 0.9902 ± 0.0071
TAATTCCGGG | 1.01 ± 0.013
TAATTGGGCT | 0.975 ± 0.016
TAATTGGTGC | 1.049 ± 0.0075
TAATTTAAGG | 0.993 ± 0.039
TAATTTAGTA | 0.9929 ± 0.0073
TAATTTATCA | 1.01 ± 0.035
TAATTTGGAG | 1 ± 0.039
TAATTTGGCT | 1.01 ± 0.035
TAATTTGTTA | 1 ± 0.02
TAATTTTTT | 1 ± 0.038
TACAAAATGG | 0.997 ± 0.012
TACAAATTGA | 1.02 ± 0.021
TACAACGTGG | 0.991 ± 0.012
TACAAGCCTA | 1.011 ± 0.0014

Sequence | switch fluorescence ratio
TACAAGGGAT | 0.983 ± 0.013
TACAATGTTT | 1.02 ± 0.059
TACACCGCGG | 1.02 ± 0.027
TACACCTCTA | 1.07 ± 0.028
TACACGAAAA | 1.13 ± 0.13
TACACTGAAA | 1.08 ± 0.026
TACACTGAAT | 1.01 ± 0.038
TACACTGATA | 1.08 ± 0.043
TACAGAACGC | 1.24 ± 0.24
TACAGAATGG | 0.991 ± 0.014
TACAGCTGGG | 1.01 ± 0.016
TACAGGATGG | 0.9694 ± 0.0057
TACAGGGAGT | 1.06 ± 0.047
TACAGGGCTG | 1.02 ± 0.057
TACAGTGAAA | 1.05 ± 0.057
TACATAAGTT | 1.02 ± 0.0074
TACATAATTA | 0.993 ± 0.021
TACATATGGT | 1.03 ± 0.0018
TACATCGTTT | 1 ± 0.025
TACATGATGG | 1 ± 0.035
TACATGGGCA | 1.01 ± 0.044
TACATGTAGC | 0.986 ± 0.02
TACATTTATA | 1.02 ± 0.019
TACATTTTAC | 1.151 ± 0.0082
TACCAACATC | 1.093 ± 0.0039
TACCAGTCGC | 1.03 ± 0.026

Sequence | switch fluorescence ratio
TACCAGTGCG | 1.19 ± 0.15
TACCAGTGCT | 1.075 ± 0.0019
TACCCGGTTT | 0.999 ± 0.026
TACCGGATTT | 0.979 ± 0.0026
TACCGTTTAT | 1.02 ± 0.036
TACCTAATTA | 1.04 ± 0.046
TACCTACATC | 1.26 ± 0.031
TACCTCATGG | 1.01 ± 0.054
TACCTGGTCG | 1.03 ± 0.041
TACCTTGTCT | 1.04 ± 0.042
TACGAATAGG | 1.017 ± 0.0043
TACGCCTGTG | 1.01 ± 0.037
TACGCTGGGG | 1.02 ± 0.04
TACGCTTAGC | 1.1 ± 0.031
TACGGAAGGA | 1.1 ± 0.021
TACGGGAATT | 1.04 ± 0.023
TACGGGAGCT | 1.05 ± 0.026
TACGGGCCGG | 0.98 ± 0.011
TACGGGGACG | 1.02 ± 0.026
TACGGGGTAG | 0.996 ± 0.028
TACGGGTAGC | 1.04 ± 0.02
TACGGTTTAG | 1 ± 0.048
TACGTAATCT | 1.27 ± 0.014
TACGTAATTT | 1.17 ± 0.018
TACGTATAGG | 1.098 ± 0.0028
TACGTCAGTC | 1.05 ± 0.028

Sequence | switch fluorescence ratio
TACGTGCTCC | 1.144 ± 0.0012
TACGTGGGGC | 1.01 ± 0.0079
TACGTGGGGT | 1.01 ± 0.018
TACGTGGGTA | 1 ± 0.0047
TACGTTATAG | 1.11 ± 0.025
TACGTTGCTT | 0.9959 ± 0.0022
TACGTTGGCA | 1.03 ± 0.035
TACGTTTACG | 1.018 ± 0.0027
TACGTTTCT | 1 ± 0.054
TACGTTTTGT | 1.01 ± 0.011
TACTAGAACT | 1.03 ± 0.035
TACTAGACAG | 1.028 ± 0.0016
TACTATCGTT | 0.994 ± 0.01
TACTATTTTA | 1 ± 0.016
TACTCAGAGG | 1.04 ± 0.021
TACTCTTCAT | 1.12 ± 0.15
TACTCTTTTC | 1.02 ± 0.034
TACTGAAGGG | 1.02 ± 0.031
TACTGAATGT | 1.02 ± 0.013
TACTGATCGT | 1.04 ± 0.024
TACTGCCAGC | 1.08 ± 0.054
TACTGGCTGT | 1.01 ± 0.029
TACTGGGCAC | 3.22 ± 3
TACTGGGGCT | 1.04 ± 0.034
TACTGGTCCG | 1.08 ± 0.074
TACTGTTTTT | 0.9832 ± 0.0056

Sequence | switch fluorescence ratio
TACTTATCCT | 1.05 ± 0.042
TACTTCATTT | 1.03 ± 0.041
TACTTCCTCC | 3.8 ± 0.44
TACTTCGAGA | 1.081 ± 0.0099
TACTTGCGGA | 1.03 ± 0.042
TACTTGGGC | 1.02 ± 0.021
TACTTTAGAC | 1.05 ± 0.011
TACTTTCTGC | 1.02 ± 0.066
TACTTTGCTT | 1.06 ± 0.038
TACTTTTATT | 1.026 ± 0.0066
TACTTTTTGG | 0.9872 ± 0.0092
TAGAAAGGGT | 1.01 ± 0.041
TAGAAAGGTC | 1.073 ± 0.0025
TAGAAAGTTG | 0.953 ± 0.083
TAGAAATTTC | 1.02 ± 0.036
TAGAACAGTT | 0.9982 ± 0.0013
TAGACATGTT | 1 ± 0.13
TAGACGGGGG | 1 ± 0.04
TAGACTTTTT | 0.997 ± 0.03
TAGAGAAAAT | 0.964 ± 0.053
TAGAGAGCCA | 1.03 ± 0.041
TAGAGAGGAG | 1.03 ± 0.021
TAGAGATGGT | 0.962 ± 0.024
TAGAGGCTGC | 0.958 ± 0.042
TAGAGGGGCT | 0.993 ± 0.03
TAGAGGGGTG | 0.991 ± 0.0026

Sequence | switch fluorescence ratio
TAGAGGGGTT | 0.985 ± 0.02
TAGAGGGTGC | 0.967 ± 0.052
TAGAGGTAGG | 0.979 ± 0.018
TAGAGGTATG | 1.01 ± 0.028
TAGAGTCCAT | 1.02 ± 0.019
TAGAGTCGTG | 0.981 ± 0.027
TAGAGTTTGG | 1 ± 0.045
TAGATAAGGC | 0.981 ± 0.018
TAGATATGAG | 1.009 ± 0.0012
TAGATCGGGG | 1.008 ± 0.01
TAGATGCTTT | 0.96461 ± 0.00038
TAGATGGGGC | 0.967 ± 0.029
TAGATGTCAG | 0.986 ± 0.016
TAGATGTGTT | 1.01 ± 0.023
TAGATTAGGA | 1.01 ± 0.036
TAGATTGTCT | 1.01 ± 0.03
TAGATTTTGC | 1.03 ± 0.027
TAGCAAGTG | 1.04 ± 0.041
TAGCAGGGTT | 0.9852 ± 0.0061
TAGCAGTCGA | 1.09 ± 0.058
TAGCAGTTGG | 0.988 ± 0.02
TAGCCATGTC | 0.924 ± 0.053
TAGCCCTGTG | 1.05 ± 0.014
